According to patent US20220363736A1 (ICAHN SCHOOL OF MEDICINE AT MOUNT SINAI, published 2022):
Read-outs that look alike come from different tables or passages of the source.

What was measured:
[1] = target: neuraminidase of wild type B/Malaysia/2506/04 virus (influenza B virus B/Malaysia/2506/04)
[2] = target: recombinant neuraminidase (rNA) from B/Florida/04/2006 (influenza B virus B/Florida/04/06)
[3] = target: neuraminidase of wild type B/Malaysia/2506/04 virus (influenza B virus B/Malaysia/2506/04); remark: listed apart in the source
[4] = target: neuraminidase of the ancestral B/Lee/40 strain (influenza B virus B/Lee/40, UniProt P03474 1-466); assay: ELISA on purified whole virus
[5] = target: recombinant neuraminidase (rNA) from B/Malaysia/2506/04 (influenza B virus B/Malaysia/2506/04)
[6] = target: recombinant neuraminidase (rNA) from B/Florida/04/2006 (influenza B virus B/Florida/04/06); remark: listed apart in the source
[7] = target: recombinant neuraminidase (rNA) from B/Malaysia/2506/04 (influenza B virus B/Malaysia/2506/04); remark: listed apart in the source
[8] = target: neuraminidase of wild type B/Malaysia/2506/04 virus (influenza B virus B/Malaysia/2506/04); remark: listed apart in the source

Sequence of neuraminidase of the ancestral B/Lee/40 strain (P03474 whole entry): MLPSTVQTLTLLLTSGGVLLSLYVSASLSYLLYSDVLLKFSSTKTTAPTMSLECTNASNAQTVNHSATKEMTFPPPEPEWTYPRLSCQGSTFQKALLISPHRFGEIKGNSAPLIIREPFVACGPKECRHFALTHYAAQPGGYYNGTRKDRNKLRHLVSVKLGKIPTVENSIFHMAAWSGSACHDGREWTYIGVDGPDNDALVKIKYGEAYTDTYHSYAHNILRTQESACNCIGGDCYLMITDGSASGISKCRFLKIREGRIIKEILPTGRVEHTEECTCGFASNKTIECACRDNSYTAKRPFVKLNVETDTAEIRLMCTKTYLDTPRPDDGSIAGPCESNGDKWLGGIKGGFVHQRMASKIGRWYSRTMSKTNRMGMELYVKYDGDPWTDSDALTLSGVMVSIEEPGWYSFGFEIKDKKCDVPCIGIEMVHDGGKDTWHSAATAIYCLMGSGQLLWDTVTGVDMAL

B1: monoclonal antibody 1F2 (hybridoma-produced, murine IgG2a) (antibody, V domains shown)
VH: QVHLQQSGPEVARPGASVKLSCKASGYTFTDYYLNWVKQRPRQGLEWIGQIHPGSTNTYYNEKFKGKATLTADKSSSTAYMQLSSLTFEDSAVYFCAISLGDGYYVYAMVCWGQGTAVTVSS
VL: DIVMTQSQKFMSTSVGDRVSVTCKASQNVVTNVVWYQQKPGQSPKPLIYSASYRYSGVPDRFTGSGSGTDFTLTISNVQSEDLAEYCCQQYHSYPFTFGSGTKLEVK
B1 showed an IC50 (read off the curve) [1] of 2 µg/mL, an EC50 (read off the curve) [2] of 0.03 µg/mL and an IC50 (read off the curve) [3] of 0.09 µg/mL. B1: binds [4].

B2: recombinantly expressed 1F2 IgG1 (antibody, V domains shown)
VH: QVHLQQSGPEVARPGASVKLSCKASGYTFTDYYLNWVKQRPRQGLEWIGQIHPGSTNTYYNEKFKGKATLTADKSSSTAYMQLSSLTFEDSAVYFCAISLGDGYYVYAMVCWGQGTAVTVSS
VL: DIVMTQSQKFMSTSVGDRVSVTCKASQNVVTNVVWYQQKPGQSPKPLIYSASYRYSGVPDRFTGSGSGTDFTLTISNVQSEDLAEYCCQQYHSYPFTFGSGTKLEVK
In the case of B2, the Kd [5] is reported as 1.05 nM and the EC50 (read off the curve) [2] is reported as 0.05 µg/mL.

B3: recombinantly expressed 1F2 IgM (antibody, V domains shown)
VH: QVHLQQSGPEVARPGASVKLSCKASGYTFTDYYLNWVKQRPRQGLEWIGQIHPGSTNTYYNEKFKGKATLTADKSSSTAYMQLSSLTFEDSAVYFCAISLGDGYYVYAMVCWGQGTAVTVSS
VL: DIVMTQSQKFMSTSVGDRVSVTCKASQNVVTNVVWYQQKPGQSPKPLIYSASYRYSGVPDRFTGSGSGTDFTLTISNVQSEDLAEYCCQQYHSYPFTFGSGTKLEVK
B3 gave a Kd [5] of 0.65 nM.

B4: 1F2 Fab (Fab, V domains shown)
VH: QVHLQQSGPEVARPGASVKLSCKASGYTFTDYYLNWVKQRPRQGLEWIGQIHPGSTNTYYNEKFKGKATLTADKSSSTAYMQLSSLTFEDSAVYFCAISLGDGYYVYAMVCWGQGTAVTVSS
VL: DIVMTQSQKFMSTSVGDRVSVTCKASQNVVTNVVWYQQKPGQSPKPLIYSASYRYSGVPDRFTGSGSGTDFTLTISNVQSEDLAEYCCQQYHSYPFTFGSGTKLEVK
In the case of B4, the IC50 (read off the curve) [1] is reported as 3 µg/mL.

B5: recombinantly expressed 1F2 IgG2b (antibody, V domains shown)
VH: QVHLQQSGPEVARPGASVKLSCKASGYTFTDYYLNWVKQRPRQGLEWIGQIHPGSTNTYYNEKFKGKATLTADKSSSTAYMQLSSLTFEDSAVYFCAISLGDGYYVYAMVCWGQGTAVTVSS
VL: DIVMTQSQKFMSTSVGDRVSVTCKASQNVVTNVVWYQQKPGQSPKPLIYSASYRYSGVPDRFTGSGSGTDFTLTISNVQSEDLAEYCCQQYHSYPFTFGSGTKLEVK
For B5, the Kd [5] was 1.16 nM, the EC50 (read off the curve) [2] was 0.03 µg/mL and the IC50 (read off the curve) [3] was 0.3 µg/mL.

B6: recombinantly expressed 1F2 IgG2a (antibody, V domains shown)
VH: QVHLQQSGPEVARPGASVKLSCKASGYTFTDYYLNWVKQRPRQGLEWIGQIHPGSTNTYYNEKFKGKATLTADKSSSTAYMQLSSLTFEDSAVYFCAISLGDGYYVYAMVCWGQGTAVTVSS
VL: DIVMTQSQKFMSTSVGDRVSVTCKASQNVVTNVVWYQQKPGQSPKPLIYSASYRYSGVPDRFTGSGSGTDFTLTISNVQSEDLAEYCCQQYHSYPFTFGSGTKLEVK
B6 was tested, and the Kd [5] was 0.68 nM, the EC50 (read off the curve) [2] was 0.03 µg/mL and the IC50 (read off the curve) [3] was 0.1 µg/mL.

B7: recombinantly expressed 1F2 monomeric IgA (antibody, V domains shown)
VH: QVHLQQSGPEVARPGASVKLSCKASGYTFTDYYLNWVKQRPRQGLEWIGQIHPGSTNTYYNEKFKGKATLTADKSSSTAYMQLSSLTFEDSAVYFCAISLGDGYYVYAMVCWGQGTAVTVSS
VL: DIVMTQSQKFMSTSVGDRVSVTCKASQNVVTNVVWYQQKPGQSPKPLIYSASYRYSGVPDRFTGSGSGTDFTLTISNVQSEDLAEYCCQQYHSYPFTFGSGTKLEVK
With B7 the Kd [5] was 0.958 nM.

B8: recombinantly expressed 1F2 polymeric IgA (antibody, V domains shown)
VH: QVHLQQSGPEVARPGASVKLSCKASGYTFTDYYLNWVKQRPRQGLEWIGQIHPGSTNTYYNEKFKGKATLTADKSSSTAYMQLSSLTFEDSAVYFCAISLGDGYYVYAMVCWGQGTAVTVSS
VL: DIVMTQSQKFMSTSVGDRVSVTCKASQNVVTNVVWYQQKPGQSPKPLIYSASYRYSGVPDRFTGSGSGTDFTLTISNVQSEDLAEYCCQQYHSYPFTFGSGTKLEVK
Work on B8 yielded a Kd [5] of 0.28 nM.

B9: monoclonal antibody 1F4 (hybridoma-produced, murine IgG2a) (antibody, V domains shown)
VH: QVHLQQSGSELRSPGSSVKLSCKDFDSEVFPIVYMRWIRQKPGHGFEWIGDILPSFGRTIYGEKFEDKATLDADTVSNTAYLELNSLTSEDSAIYYCARGDHGNWLAYWGQGTLVTVSA
VL: DIVMTQSHKFMSTSVGDRVTITCKASQDVSTNVAWYQQKPGQSPKLLIYWASTRHTGVPNRFTGIISGTDYTLTISSVQAEDRALYYCQQHYSAPWTFGGGTKLEIK
With B9 the IC50 (read off the curve) [1] was 4 µg/mL, the EC50 (read off the curve) [6] was 0.05 µg/mL and the binding result [4] was “binds”.

B10: monoclonal antibody 4B2 (hybridoma-produced, murine IgG2a) (antibody, V domains shown)
VH: QIQLVQSGPELKKPGETVKISCKASGFTFTDYPMHWVKQAPGKSLKWMGWINTETEEPTYSDDFKGRSPLSLETSASTTYLQINNLKNEDTSTYFCVRSGYYYGSTYAWFGYWGQGTLVTVSA
VL: DVVMTQIPLSLPVSLGDQASISCRSSQSLIHTNGDTFLHWYLQKPGQSPKLLIYKVSNRFSGVPDRFTGGGSGTDFTLKISRVEAEDLGIYFCSQSALFPYTFGGGTNLEIK
B10: binds [4].

B11: recombinantly expressed 4F11 IgG2b (antibody, V domains shown)
VH: DVKLVESGGDLVKPGGSLKLSCAASGFTFSAYSMSWVRQTPERRLEWVATINTGGSFTYYPDSVKGRFTISRDNAKNTLYLQMSSLKSEDTAMYFCTRVSDYGNSAYFPYWGQGTLVIVFA
VL: QVVLTQSPALISASPGEKVTMTCSASSNVNYMSWYQQRPRSSPKPWIYLTSKLASGVPPRFSGSGSGTSYSLTISSMEAEDVATYYCQQWSSDPQTFGGGTKVEIK
Work on B11 yielded a Kd [5] of 0.00298 nM, an EC50 (read off the curve) [7] of 0.06 µg/mL and an IC50 (read off the curve) [8] of 0.2 µg/mL.

B12: recombinantly expressed 4F11 IgG1 (antibody, V domains shown)
VH: DVKLVESGGDLVKPGGSLKLSCAASGFTFSAYSMSWVRQTPERRLEWVATINTGGSFTYYPDSVKGRFTISRDNAKNTLYLQMSSLKSEDTAMYFCTRVSDYGNSAYFPYWGQGTLVIVFA
VL: QVVLTQSPALISASPGEKVTMTCSASSNVNYMSWYQQRPRSSPKPWIYLTSKLASGVPPRFSGSGSGTSYSLTISSMEAEDVATYYCQQWSSDPQTFGGGTKVEIK
Work on B12 yielded a Kd [5] of 0.00891 nM.

B13: recombinantly expressed 4F11 polymeric IgA (antibody, V domains shown)
VH: DVKLVESGGDLVKPGGSLKLSCAASGFTFSAYSMSWVRQTPERRLEWVATINTGGSFTYYPDSVKGRFTISRDNAKNTLYLQMSSLKSEDTAMYFCTRVSDYGNSAYFPYWGQGTLVIVFA
VL: QVVLTQSPALISASPGEKVTMTCSASSNVNYMSWYQQRPRSSPKPWIYLTSKLASGVPPRFSGSGSGTSYSLTISSMEAEDVATYYCQQWSSDPQTFGGGTKVEIK
For B13, the Kd [5] was 0.00242 nM.

B14: recombinantly expressed 4F11 IgM (antibody, V domains shown)
VH: DVKLVESGGDLVKPGGSLKLSCAASGFTFSAYSMSWVRQTPERRLEWVATINTGGSFTYYPDSVKGRFTISRDNAKNTLYLQMSSLKSEDTAMYFCTRVSDYGNSAYFPYWGQGTLVIVFA
VL: QVVLTQSPALISASPGEKVTMTCSASSNVNYMSWYQQRPRSSPKPWIYLTSKLASGVPPRFSGSGSGTSYSLTISSMEAEDVATYYCQQWSSDPQTFGGGTKVEIK
For B14, the Kd [5] was 0.00511 nM.

B15: recombinantly expressed 4F11 IgG2a (antibody, V domains shown)
VH: DVKLVESGGDLVKPGGSLKLSCAASGFTFSAYSMSWVRQTPERRLEWVATINTGGSFTYYPDSVKGRFTISRDNAKNTLYLQMSSLKSEDTAMYFCTRVSDYGNSAYFPYWGQGTLVIVFA
VL: QVVLTQSPALISASPGEKVTMTCSASSNVNYMSWYQQRPRSSPKPWIYLTSKLASGVPPRFSGSGSGTSYSLTISSMEAEDVATYYCQQWSSDPQTFGGGTKVEIK
For B15, the Kd [5] was 0.00336 nM.

B16: recombinantly expressed 4F11 monomeric IgA (antibody, V domains shown)
VH: DVKLVESGGDLVKPGGSLKLSCAASGFTFSAYSMSWVRQTPERRLEWVATINTGGSFTYYPDSVKGRFTISRDNAKNTLYLQMSSLKSEDTAMYFCTRVSDYGNSAYFPYWGQGTLVIVFA
VL: QVVLTQSPALISASPGEKVTMTCSASSNVNYMSWYQQRPRSSPKPWIYLTSKLASGVPPRFSGSGSGTSYSLTISSMEAEDVATYYCQQWSSDPQTFGGGTKVEIK
B16 was tested, and the Kd [5] was 0.00472 nM.

B17: monoclonal antibody 4F11 (hybridoma-produced, murine IgG2b) (antibody, V domains shown)
VH: DVKLVESGGDLVKPGGSLKLSCAASGFTFSAYSMSWVRQTPERRLEWVATINTGGSFTYYPDSVKGRFTISRDNAKNTLYLQMSSLKSEDTAMYFCTRVSDYGNSAYFPYWGQGTLVIVFA
VL: QVVLTQSPALISASPGEKVTMTCSASSNVNYMSWYQQRPRSSPKPWIYLTSKLASGVPPRFSGSGSGTSYSLTISSMEAEDVATYYCQQWSSDPQTFGGGTKVEIK
In the case of B17, the EC50 (read off the curve) [7] is reported as 0.05 µg/mL, the IC50 (read off the curve) [8] is reported as 0.2 µg/mL and the binding result [4] is reported as “binds”.

B18: monoclonal antibody 3G1 (hybridoma-produced, murine IgG2a) (antibody, V domains shown)
VH: QVQLQQSGAELMKPGASVKISCKATGYKFTSYWIGWVKQRPGHGLEWCGEIFPGSGSINYNEKFKGKATFTADTSSNTAYLQLTSLTSEDSAVYYCARGEDYYGSSYGAMDYWGQGTSLTVSS
VL: DVQITQSPSYLAASPGETITINCRASKSISKYVAWYQEKPGRTNKVLIYSGSILSFGNPSRFSGSGSGTDFTLTISSLEPEDFAMYYCQQHNEYPWTFGGGTKLEIK
With B18 the IC50 (read off the curve) [1] was 3 µg/mL and the binding result [4] was “binds”.
